Reference: the supplement of paper PMC9170038

Tested on: MS2 coat protein
Experiment: apparent KD of MS2 coat protein; designed switch direction (-1 OFF switch, 1 ON switch): -1; higher = weaker reporter binding
In short: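 Designed RNA switches sharing common flanks were transcribed on Illumina chips by stalled E. coli RNA polymerase. They were titrated with SNAP-549-labelled MS2 coat protein, from 0.7 or 1.5 nM doubling to 3 µM, in Tris-HCl pH 7.5 buffer with KCl, MgCl2, BSA, DTT, tRNA and Tween-20. Titrations ran without input, with 200 uM small-molecule ligand, or with an oligonucleotide input. The apparent KD of each design is the median over its clusters, after curve-fitting of normalised cluster fluorescence.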

[1] = Eterna round: R95, input ligand: FMN 200 uM
[2] = Eterna round: R95, input ligand: microRNA oligo, concentration not stated
[3] = Eterna round: R95, input ligand: none
[4] = input ligand: microRNA oligo, concentration not stated

| Sequence | apparent KD of MS2 coat protein [1] [nM] | apparent KD of MS2 coat protein [2] [nM] | apparent KD of MS2 coat protein [3] [nM] | apparent KD of MS2 coat protein (input ligand: FMN 200 uM) [nM] | apparent KD of MS2 coat protein (input ligand: none) [nM] | apparent KD of MS2 coat protein [4] [nM] |
| --- | --- | --- | --- | --- | --- | --- |
| UAUAAGGUAGGAUAUACGAAUAAAUAGGGUAGAAUAAUAACACAUGAGGAUCACCCAUGUAGAAGGACCAAGAU [Mat - Exclusion 2 - Mod of my Tesla design - D29] (puzzle: Exclusion 2) | 44.5 | 20.5 | 24.8 |  |  |  |
| UAUACCACAGUUAGGAUAUUCUAAGUAGUAGCUAAGAAGAAGGAACAUGAGGAUCACCCAUGUGGAGCCAGCGU [Eternabot (L1) Solution 99] (Eterna round: R97, puzzle: Brourd's mod of Exclusion 4) |  |  |  | 45.3 | 18.1 |  |
| UAUAUAUAGUAAGGAUAUGUAAUUAUCUUAUAAACAGAAGGUACUGACAUGAGGAUCACCCAUGUUUUAGUGUGGGCAUGUAGA [JMF's solution 39] (Eterna round: R96, puzzle: Exclusion NG 1) |  |  |  |  |  | 49.8 |
| UAUCCUCAAGUGAGGAUAUGACGGUCAAGACGCGUUCAGAAGGCACAUGAGGAUCACCCAUGUGAUAAAGGAAU [Eternabot (L2) Solution 38] (Eterna round: R97, puzzle: Brourd's mod of Exclusion 4) |  |  |  | 91.7 | 20.6 |  |
| UAUCGGGACUGAGGAUAUUCGUUCGAACACGAAGAAGAAGGUAGUGUCAGGGACAUGAGGAUCACCCAUGUGAUUUCAGUCCUA [JL ViennaUCT Erinle mod 3] (Eterna round: R96, puzzle: Exclusion NG 1) |  |  |  | 149 | 165 | 102 |
| UAUCUUCAUAUCACAUGAGGAUCACCCAUGUUAUUCAUCUCGUAGGAUAUCGAGGUUUUUUUUUUCGAGAAGGACGUAUUGUUU [JR_ExcNG3_Sub078] (Eterna round: R96, puzzle: Exclusion NG 3) |  |  |  | 183 | 180 | 159 |
| UAUGAGCUAGGAUAUGCUUUGGGCUCGCUUUCCUUCGAUAAACUUGAGGAUCACCCAAGUAGAAGGAGCUUGUA [Mod 32 - Jieux - Exclusion 2] (Eterna round: R97, puzzle: Exclusion 2) |  |  |  | 36.5 | 15.8 |  |
| UAUGAUGCAGGAUAUACAUGAGGAUCACCCAUGUCUCCAAGGGAUAAAGCCAGGCGCUGUAGAAGGGCGACGAC [Eternabot (L1) Solution 28] (Eterna round: R97, puzzle: Exclusion 3) |  |  |  | 26.9 | 27.4 |  |
| UAUGGUCUUGAGGAUAUACCAGGGUGAGUCCAGGUAGAAGGUAGGACAUGAGGAUCACCCAUGUGACGUAGUGU [Eternabot (L2) Solution 49] (Eterna round: R97, puzzle: Exclusion 6) |  |  |  | 434 | 354 |  |
| UAUGGUUAAGUCAGGAUAUACAUACAGAUAUCUGAGUAGAAGGGACAUGAGGAUCACCCAUGUAUGGUAGUGUU [Ex4 #54] (Eterna round: R97, puzzle: Brourd's mod of Exclusion 4) |  |  |  | 169 | 76.3 |  |
| UAUUAACAGGCAAGAUCCCACAUGAGGAUCACCCAUGUGCUCGUCUUAUAAGGUACUGUGACGAAAGUCACGGUACC [Sensor 3, v1 - 82] (puzzle: Sensor v3, turn-off variant 1) | 23.2 | 589 | 29.4 |  |  |  |
| UAUUACAAGCGAGAUCCUAACAUGAGGAUCACCCAUGUGCUCGUCUCAUUUUGGACUAUCACGAAAGUGAUAGUCCU [Level Boss var2-02] (puzzle: Sensor v3, turn-off variant 1) | 19.9 | 237 | 17.2 |  |  |  |
| UAUUAGCAAGCAAAUGGGUACAUGAGGAUCACCCAUGUGCUCGUCUUAUAAGGUACUGUGACGAAAGUCCCGGUACC [mod--Eli6] (Eterna round: R97, puzzle: Sensor, turn-off variant 1) |  |  |  | 28.9 | 21.9 |  |
